Reference: the supplement of paper PMC9170038

What was measured:
MS2 coat protein [1] = assay: apparent KD of MS2 coat protein, switch ON state; designed switch direction (-1 OFF switch, 1 ON switch): -1; higher = weaker reporter binding; details: FMN input: 0 or 200 uM; Eterna round: R93 (includes R88 designs)
How it was run: (§1)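 For every design, apparent KD is the median of normalised binding-curve fits from its clusters. The RNA switches were transcribed on-chip from Illumina sequencing clusters and titrated with SNAP-549-labelled MS2 coat protein (twofold steps, 0.7 or 1.5 nM to 3 µM; 0.8–1.5 h to 10–20 min per step). Titrations used 100 mM Tris-HCl pH 7.5, 80 mM KCl, 4 mM MgCl2, without or with constant ligand.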

MS2 coat protein [2] = assay: apparent KD of MS2 coat protein, switch OFF state (with FMN for OFF switches, without FMN for ON switches); designed switch direction (-1 OFF switch, 1 ON switch): -1; higher = weaker reporter binding; details: FMN input: 0 or 200 uM; Eterna round: R93 (includes R88 designs)
How it was run: as §1

| Sequence | apparent KD of MS2 coat protein (MS2 coat protein [1]) [nM] | apparent KD of MS2 coat protein (MS2 coat protein [2]) [nM] |
| --- | --- | --- |
| AAAAAGGUAGGAUAUGCUAAAUAACAUGUUGAAUAAAUAAAACAUGAGGAUCACCCAUGUAGAAGGACCAAAAA [Ex 2 Tesla 2] | 54 | 58.1 |
| AAAAAGUAAGGAUAUACAAAAGAAAACACAAAAAAAAAAAAACAUGAGGAUCACCCAUGUAGAAGGUACAAAAA [Ex2 Malc#1] | 27.3 | 19.3 |
| AAAAAGUAAGGAUAUACAAGAGAAAACACAAAAAAAAAAAAACAUGAGGAUCACCCAUGUAGAAGGUACAAAAA [Diamond 82] | 27.5 | 24.6 |
| AAAAAGUAAGGAUAUAGCAAAGGUCACGAAAGUGACAAAGGCUAGAAGGUACAUGAGGAUCACCCAUGUCCAAG [Mat - Exclusion 4 - Eli mod - D100] | 30.8 | 16.6 |
| AAAAAGUCAGGAUAUACAAAAGUGCGAAAGCACAAAAUGGGACAUGAGGAUCACCCAUGUAGAAGGGACAAGAA [JL In the Red 01 (Mod)] | 148 | 472 |
| AAAAAGUCAGGAUAUACAUGAGGAUCACCCAUGUGAAAGAACGAUUAACGAAAAGCAAGUAGAAGGGACAAAAA [Ruby 79] | 22.1 | 23.7 |
| AAAAAGUCAGGAUAUACAUGAGGAUCACCCAUGUGAAAGAACGAUUAACGACCAGCAAGUAGAAGGGACAAAAA [Ruby 80] | 22 | 20.8 |
| AAAAAGUCAGGAUAUACGAAAGUGCGAAAGCACAAAAAGGGACAUGAGGAUCACCCAUGUAGAAGGGACAAGAA [Married to this design, 61% 3] | 45.2 | 50.4 |
| AAAAAGUCAGGAUAUGUAGCAAAAAGUGAUCCAAAAAAGCUACAGAAGGGACAUGAGGAUCACCCAUGUAAAAA [Ex4: 931] | 86.5 | 98.2 |
| AAAAAGUCAGGAUAUGUAGCAUGAUACGAAAGUAUCAUGCUACAGAAGGGACAUGAGGAUCACCCAUGUGAUCA [Ex4: 938] | 365 | 33.2 |
| AAAAAGUCAGGAUAUUCGGAAGGGAAAGCGCAAACCCAACCGAAGAAGGGACAUGAGGAUCACCCAUGUAAAAA [Ecls4-III] | 49.6 | 42.9 |
| AAAAAGUCAGGAUAUUCGGAUAGGAAAACGAAAACCUAUCCGAAGAAGGGACAUGAGGAUCACCCAUGUAAAAA [Ecls4-II] | 48.9 | 46.1 |
| AAAAAGUGAGGAUAUACAUGAGGAUCACCCAUGUGAAGGGAAGAGAGAGAGAGAGAGAGUAGAAGGCACAAAAA [Default title] | 98.8 | 96.3 |
| AAAAAGUGAGGAUAUACAUGAGGAUCACCCAUGUGAUAAAAAAAAAGGGUGGAAGAAAGUAGAAGGCACCAAAA [Ex 3 May 49] | 108 | 77.5 |
| AAAAAGUGAGGAUAUACAUGAGGAUCACCCAUGUGUAUAAAAAAUUACACAAAAGAAAGUAGAAGGCACUAAAG [Mat - Exclusion 3 - Mayanna mod - D112] | 17 | 30.8 |
| AAAAAGUGAGGAUAUACGAAAAAAAAAAAAAAAAAAGGUGAACAUGAGGAUCACCCAUGUAGAAGGCACAAAAA [Black Design] | 102 | 312 |
| AAAAAGUGAGGAUAUACGCGAACAAAAAAAAAAAAGAAAGCGUAGAAGGCACAUGAGGAUCACCCAUGUCCAAA [Alfred 64% 4] | 28 | 39 |
| AAAAAGUGAGGAUAUACGCGAACAAAAAUAAAAAAGAAAGCGUAGAAGGCACAUGAGGAUCACCCAUGUCCAAA [Alfred 64% 5] | 27.7 | 41.1 |
| AAAAAGUGAGGAUAUACGUUAAAAAAAAAAAAAAAAAAGCGGUAGAAGGCACAUGAGGAUCACCCAUGUAAAAA [Ex4 Malc#3] | 57.7 | 34.7 |
| AAAAAGUGAGGAUAUAGCAAAGGUCACGAAAGUGACAAAGGCUAGAAGGCACAUGAGGAUCACCCAUGUAAAAA [Fiskers Exclusion 4 D2 63% 1] | 41.6 | 34.9 |
| AAAAAGUGAGGAUAUGCAGUGGCCUGUAGACGCAAGCACUUGUAGAAGGCACAUGAGGAUCACCCAUGUUUAAA [EX4 Malc#30] | 30.9 | 28 |
| AAAAAGUGAGGAUAUUCGGAUAGGAAAACGAAAACCUAUCCGAAGAAGGCACAUGAGGAUCACCCAUGUGGGAA [67% Ecls-II - Early G + late G segment 3] | 52.6 | 75.9 |
| AAAAAGUUAGGAUAUACAUGAGGAUCACCCAUGUACAUAUAUGGAGAAAAAAACAGUAGUAGAAGGGACAAAAA [EX2 Malc#12] | 20.6 | 19.8 |

| Sequence | apparent KD of MS2 coat protein (MS2 coat protein [1]) [nM] | apparent KD of MS2 coat protein (MS2 coat protein [2]) [nM] |
| --- | --- | --- |
| AAAAAUCGAGGAUAUACAUGAGGAUCACCCAUGUCAAAAAAUGACUACACAAAAGAAAGUAGAAGGCGAUAAAG [Mat - Exclusion 3 - Mayanna mod - D129] | 25 | 36.6 |
| AAAAAUGGAGGAUAUACAUGAGGAUCACCCAUGUGUGACUAUACUAAGCGCUCUUCAGGUAGAAGGCCAAAAAA [Gilly Gone Silly 17 - Jieux - Exclusion 3] | 43.8 | 60.3 |
| AAAAAUGGAGGAUAUACAUGAGGAUCACCCAUGUUAGACCUAAAAAAAGGGAAAGAAAGUAGAAGGCCAUAAAA [Ex 3 May 29] | 17.5 | 20.6 |
| AAAAAUUGAGGAUAUACGUACAUGUCAAAAGACGUGAAGGGACAUGAGGAUCACCCAUGUAGAAGGCGAAAGAA [JL Neck Breaker 13] | 37.1 | 16 |
| AAAACACAUGAGGAUCACCCAUGUGAGGAUAUGAACGAAAUAAAAUAAAAAUAAAAGUUCAGAAGGCACAAAAA [Mat - Exclusion 1 - Eli mod - D13] | 22.2 | 36.6 |
| AAAACACAUGAGGAUCACCCAUGUGAGGAUAUGCUAUGGAAAAUAAAAAUAAAACAUAGCAGAAGGCGCAGGAA [Denovo 20] | 29.8 | 22.9 |
| AAAACGGCAGGAUAUACAGAUGAGAACUAGACCGAAAAAAAACAUGAGGAUCACCCAUGUAGAAGGGCCAAAAA [Ex2 Malc#7] | 27.8 | 36.8 |
| AAAACUAGAGGAUAUACGUACAUGUCAAAAGACGUGAAGGGACAUGAGGAUCACCCAUGUAGAAGGCUAGAAAA [JL Stem Breaker 9] | 45.2 | 104 |
| AAAACUGGAGGAUAUACAUGAGGAUCACCCAUGUGUGGAUGAGCUGAGACGGCAUCACGUAGAAGGCCACAAAA [Gilly Gone Silly 39 - Jieux - Exclusion 3] | 33.2 | 44 |
| AAAAGCUCAGGAUAUACGGUCUGUUGUUGAAAAAGUAAAAAACAUGAGGAUCACCCAUGUAGAAGGGAGCGAAA [Exclusion2-cac1] | 39.7 | 115 |
| AAAAGCUUAGGAUAUACACAAAAUAAAGGAGUGAUAUCAGAACAUGAGGAUCACCCAUGUAGAAGGAAGAAAUA [Ceerle] | 65.3 | 58 |
| AAAAGGAUAGGAUAUACAUGAGGAUCACCCAUGUGAAUAAAUAAAAUAAAUAAAUAAAGUAGAAGGGUCAAUAA [LROPPY Exclusion 3 - v05_deltaG=3.6 break up the As] | 27.8 | 25.4 |
| AAAAGGGCAGGAUAUGCGUACUCACGGGAAAACUGAAUGGUACAUGAGGAUCACCCAUGUAGAAGGGCUAAAAA [Dora Explored 19 - Jieux - Exclusion 2] | 54.6 | 37.8 |
| AAAAGGUCAGGAUAUGCCCGCCGGGUGGGAAGGCCGGGUGGGUAGAAGGGACAUGAGGAUCACCCAUGUAAAAA [Opal 42] | 52.4 | 47.9 |
| AAAAGUAGAGGAUAUACAUGAGGAUCACCCAUGUAGAAAGGAAGUAUAUAUAUGGCGUGUAGAAGGCUGCAUGA [Mat - Mod of Nando] | 26.7 | 28 |
| AAAAGUGGAGGAUAUACAUGAGGAUCACCCAUGUGUAAAAAUAAAAACACAAAAGAAAGUAGAAGGCCACAAAA [Ex 3 May 9] | 24.1 | 55.2 |
| AAAAUACAUGAGGAUCACCCAUGUCAGGAUAUGCUAAAAAAAAAAUUAAAAAAAAAAUGUAGAAGGGACUAAAA [Exclusion Z2] | 53.7 | 40 |
| AAAAUACAUGAGGAUCACCCAUGUGAGGAUAUGCAAAACCCAUAUAAAAAGGGAAAAAGCAGAAGGUACAAAAA [wbt round 1 mod 14] | 18.6 | 27.7 |
| AAAAUACAUGAGGAUCACCCAUGUGAGGAUAUGCUAUGGAAAAAUAAAAUAAAACAUAGCAGAAGGCACAAAAA [Mat - Exclusion 1 - Eli mod - D41] | 34.3 | 73.4 |
| AAAAUACAUGAGGAUCACCCAUGUGAGGAUAUUAGAAAGGGAAUAAAAUAACCCAAACUAAGAAGGCACAAAAA [Ex 1 May 27] | 28.5 | 35.3 |
| AAAAUACAUGAGGAUCACCCAUGUGAGGAUAUUAGAAAGGGAAUAAAAUAACUUAAACUAAGAAGGCACAAAAA [Ex 1 May 28] | 18.2 | 27.7 |
| AAAAUACGAGGAUAUACAUGAGGAUCACCCAUGUCAAAAAAUGACUACACAAAAGAAAGUAGAAGGCGUAAAAG [Mat - Exclusion 3 - Mayanna mod - D127] | 24 | 41.8 |
